Reference: publication PMC10470887

Biological target: SpGrx3 R47F mutant (Sphingomonas sp. PAMC 26621)
Experiment: SEC; Superdex 200 prep grade XK16 column; 50 mM Tris·HCl, 50 mM NaCl, pH 8.0; molecular weight against a protein standard mix

SpGrx3 R47F mutant (enzyme)
stoichiometry N: 2
